B1: H183/L072 VL V94G (antibody, name in Kabat numbering, V domains shown)
VH: QVQLVESGGGLVQPGRSLRLSCAASGFTFSNAWMHWVRQAPGKGLEWVAQIKDKGNAYAAYYAPSVKGRFTISRDDSKNSIYLQMNSLKTEDTAVYYCHYVHYASASTVLPAFGVDAWGQGTTVTVSS
VL: DIVMTQSPLSLPVTPGEPASISCQASQELVHMNRNTYLHWYQQKPGQAPRLLIYKVSNRFPGVPDRFSGSGSGTDFTLKISRVEAEDVGVYYCAQGTSGPFTFGQGTKLEIK
B2: H183/L072 VL P95G (antibody, name in Kabat numbering, V domains shown)
VH: QVQLVESGGGLVQPGRSLRLSCAASGFTFSNAWMHWVRQAPGKGLEWVAQIKDKGNAYAAYYAPSVKGRFTISRDDSKNSIYLQMNSLKTEDTAVYYCHYVHYASASTVLPAFGVDAWGQGTTVTVSS
VL: DIVMTQSPLSLPVTPGEPASISCQASQELVHMNRNTYLHWYQQKPGQAPRLLIYKVSNRFPGVPDRFSGSGSGTDFTLKISRVEAEDVGVYYCAQGTSVGFTFGQGTKLEIK
B3: H183/L072 VL F96G (antibody, name in Kabat numbering, V domains shown)
VH: QVQLVESGGGLVQPGRSLRLSCAASGFTFSNAWMHWVRQAPGKGLEWVAQIKDKGNAYAAYYAPSVKGRFTISRDDSKNSIYLQMNSLKTEDTAVYYCHYVHYASASTVLPAFGVDAWGQGTTVTVSS
VL: DIVMTQSPLSLPVTPGEPASISCQASQELVHMNRNTYLHWYQQKPGQAPRLLIYKVSNRFPGVPDRFSGSGSGTDFTLKISRVEAEDVGVYYCAQGTSVPGTFGQGTKLEIK
B4: H183/L072 VL K50N (antibody, name in Kabat numbering, V domains shown)
VH: QVQLVESGGGLVQPGRSLRLSCAASGFTFSNAWMHWVRQAPGKGLEWVAQIKDKGNAYAAYYAPSVKGRFTISRDDSKNSIYLQMNSLKTEDTAVYYCHYVHYASASTVLPAFGVDAWGQGTTVTVSS
VL: DIVMTQSPLSLPVTPGEPASISCQASQELVHMNRNTYLHWYQQKPGQAPRLLIYNVSNRFPGVPDRFSGSGSGTDFTLKISRVEAEDVGVYYCAQGTSVPFTFGQGTKLEIK
B5: H183/L072 VL V51N (antibody, name in Kabat numbering, V domains shown)
VH: QVQLVESGGGLVQPGRSLRLSCAASGFTFSNAWMHWVRQAPGKGLEWVAQIKDKGNAYAAYYAPSVKGRFTISRDDSKNSIYLQMNSLKTEDTAVYYCHYVHYASASTVLPAFGVDAWGQGTTVTVSS
VL: DIVMTQSPLSLPVTPGEPASISCQASQELVHMNRNTYLHWYQQKPGQAPRLLIYKNSNRFPGVPDRFSGSGSGTDFTLKISRVEAEDVGVYYCAQGTSVPFTFGQGTKLEIK
B6: H183/L072 VL A89N (antibody, name in Kabat numbering, V domains shown)
VH: QVQLVESGGGLVQPGRSLRLSCAASGFTFSNAWMHWVRQAPGKGLEWVAQIKDKGNAYAAYYAPSVKGRFTISRDDSKNSIYLQMNSLKTEDTAVYYCHYVHYASASTVLPAFGVDAWGQGTTVTVSS
VL: DIVMTQSPLSLPVTPGEPASISCQASQELVHMNRNTYLHWYQQKPGQAPRLLIYKVSNRFPGVPDRFSGSGSGTDFTLKISRVEAEDVGVYYCNQGTSVPFTFGQGTKLEIK
B7: H183/L072 VL Q90N (antibody, name in Kabat numbering, V domains shown)
VH: QVQLVESGGGLVQPGRSLRLSCAASGFTFSNAWMHWVRQAPGKGLEWVAQIKDKGNAYAAYYAPSVKGRFTISRDDSKNSIYLQMNSLKTEDTAVYYCHYVHYASASTVLPAFGVDAWGQGTTVTVSS
VL: DIVMTQSPLSLPVTPGEPASISCQASQELVHMNRNTYLHWYQQKPGQAPRLLIYKVSNRFPGVPDRFSGSGSGTDFTLKISRVEAEDVGVYYCANGTSVPFTFGQGTKLEIK
B8: H183/L072 VL G91N (antibody, name in Kabat numbering, V domains shown)
VH: QVQLVESGGGLVQPGRSLRLSCAASGFTFSNAWMHWVRQAPGKGLEWVAQIKDKGNAYAAYYAPSVKGRFTISRDDSKNSIYLQMNSLKTEDTAVYYCHYVHYASASTVLPAFGVDAWGQGTTVTVSS
VL: DIVMTQSPLSLPVTPGEPASISCQASQELVHMNRNTYLHWYQQKPGQAPRLLIYKVSNRFPGVPDRFSGSGSGTDFTLKISRVEAEDVGVYYCAQNTSVPFTFGQGTKLEIK
B9: H183/L072 VL P95N (antibody, name in Kabat numbering, V domains shown)
VH: QVQLVESGGGLVQPGRSLRLSCAASGFTFSNAWMHWVRQAPGKGLEWVAQIKDKGNAYAAYYAPSVKGRFTISRDDSKNSIYLQMNSLKTEDTAVYYCHYVHYASASTVLPAFGVDAWGQGTTVTVSS
VL: DIVMTQSPLSLPVTPGEPASISCQASQELVHMNRNTYLHWYQQKPGQAPRLLIYKVSNRFPGVPDRFSGSGSGTDFTLKISRVEAEDVGVYYCAQGTSVNFTFGQGTKLEIK
B10: H183/L072 VL F96N (antibody, name in Kabat numbering, V domains shown)
VH: QVQLVESGGGLVQPGRSLRLSCAASGFTFSNAWMHWVRQAPGKGLEWVAQIKDKGNAYAAYYAPSVKGRFTISRDDSKNSIYLQMNSLKTEDTAVYYCHYVHYASASTVLPAFGVDAWGQGTTVTVSS
VL: DIVMTQSPLSLPVTPGEPASISCQASQELVHMNRNTYLHWYQQKPGQAPRLLIYKVSNRFPGVPDRFSGSGSGTDFTLKISRVEAEDVGVYYCAQGTSVPNTFGQGTKLEIK
B11: H183/L072 VL K50Q (antibody, name in Kabat numbering, V domains shown)
VH: QVQLVESGGGLVQPGRSLRLSCAASGFTFSNAWMHWVRQAPGKGLEWVAQIKDKGNAYAAYYAPSVKGRFTISRDDSKNSIYLQMNSLKTEDTAVYYCHYVHYASASTVLPAFGVDAWGQGTTVTVSS
VL: DIVMTQSPLSLPVTPGEPASISCQASQELVHMNRNTYLHWYQQKPGQAPRLLIYQVSNRFPGVPDRFSGSGSGTDFTLKISRVEAEDVGVYYCAQGTSVPFTFGQGTKLEIK
B12: H183/L072 VL A89R (antibody, name in Kabat numbering, V domains shown)
VH: QVQLVESGGGLVQPGRSLRLSCAASGFTFSNAWMHWVRQAPGKGLEWVAQIKDKGNAYAAYYAPSVKGRFTISRDDSKNSIYLQMNSLKTEDTAVYYCHYVHYASASTVLPAFGVDAWGQGTTVTVSS
VL: DIVMTQSPLSLPVTPGEPASISCQASQELVHMNRNTYLHWYQQKPGQAPRLLIYKVSNRFPGVPDRFSGSGSGTDFTLKISRVEAEDVGVYYCRQGTSVPFTFGQGTKLEIK
B13: H183/L072 VL Q90R (antibody, name in Kabat numbering, V domains shown)
VH: QVQLVESGGGLVQPGRSLRLSCAASGFTFSNAWMHWVRQAPGKGLEWVAQIKDKGNAYAAYYAPSVKGRFTISRDDSKNSIYLQMNSLKTEDTAVYYCHYVHYASASTVLPAFGVDAWGQGTTVTVSS
VL: DIVMTQSPLSLPVTPGEPASISCQASQELVHMNRNTYLHWYQQKPGQAPRLLIYKVSNRFPGVPDRFSGSGSGTDFTLKISRVEAEDVGVYYCARGTSVPFTFGQGTKLEIK
B14: H183/L072 VL G91R (antibody, name in Kabat numbering, V domains shown)
VH: QVQLVESGGGLVQPGRSLRLSCAASGFTFSNAWMHWVRQAPGKGLEWVAQIKDKGNAYAAYYAPSVKGRFTISRDDSKNSIYLQMNSLKTEDTAVYYCHYVHYASASTVLPAFGVDAWGQGTTVTVSS
VL: DIVMTQSPLSLPVTPGEPASISCQASQELVHMNRNTYLHWYQQKPGQAPRLLIYKVSNRFPGVPDRFSGSGSGTDFTLKISRVEAEDVGVYYCAQRTSVPFTFGQGTKLEIK
B15: H183/L072 VL P95R (antibody, name in Kabat numbering, V domains shown)
VH: QVQLVESGGGLVQPGRSLRLSCAASGFTFSNAWMHWVRQAPGKGLEWVAQIKDKGNAYAAYYAPSVKGRFTISRDDSKNSIYLQMNSLKTEDTAVYYCHYVHYASASTVLPAFGVDAWGQGTTVTVSS
VL: DIVMTQSPLSLPVTPGEPASISCQASQELVHMNRNTYLHWYQQKPGQAPRLLIYKVSNRFPGVPDRFSGSGSGTDFTLKISRVEAEDVGVYYCAQGTSVRFTFGQGTKLEIK
B16: H183/L072 VL F96R (antibody, name in Kabat numbering, V domains shown)
VH: QVQLVESGGGLVQPGRSLRLSCAASGFTFSNAWMHWVRQAPGKGLEWVAQIKDKGNAYAAYYAPSVKGRFTISRDDSKNSIYLQMNSLKTEDTAVYYCHYVHYASASTVLPAFGVDAWGQGTTVTVSS
VL: DIVMTQSPLSLPVTPGEPASISCQASQELVHMNRNTYLHWYQQKPGQAPRLLIYKVSNRFPGVPDRFSGSGSGTDFTLKISRVEAEDVGVYYCAQGTSVPRTFGQGTKLEIK
B17: H183/L072 VL K50F (antibody, name in Kabat numbering, V domains shown)
VH: QVQLVESGGGLVQPGRSLRLSCAASGFTFSNAWMHWVRQAPGKGLEWVAQIKDKGNAYAAYYAPSVKGRFTISRDDSKNSIYLQMNSLKTEDTAVYYCHYVHYASASTVLPAFGVDAWGQGTTVTVSS
VL: DIVMTQSPLSLPVTPGEPASISCQASQELVHMNRNTYLHWYQQKPGQAPRLLIYFVSNRFPGVPDRFSGSGSGTDFTLKISRVEAEDVGVYYCAQGTSVPFTFGQGTKLEIK
B18: H183/L072 VL V51F (antibody, name in Kabat numbering, V domains shown)
VH: QVQLVESGGGLVQPGRSLRLSCAASGFTFSNAWMHWVRQAPGKGLEWVAQIKDKGNAYAAYYAPSVKGRFTISRDDSKNSIYLQMNSLKTEDTAVYYCHYVHYASASTVLPAFGVDAWGQGTTVTVSS
VL: DIVMTQSPLSLPVTPGEPASISCQASQELVHMNRNTYLHWYQQKPGQAPRLLIYKFSNRFPGVPDRFSGSGSGTDFTLKISRVEAEDVGVYYCAQGTSVPFTFGQGTKLEIK
B19: H183/L072 VL Q90F (antibody, name in Kabat numbering, V domains shown)
VH: QVQLVESGGGLVQPGRSLRLSCAASGFTFSNAWMHWVRQAPGKGLEWVAQIKDKGNAYAAYYAPSVKGRFTISRDDSKNSIYLQMNSLKTEDTAVYYCHYVHYASASTVLPAFGVDAWGQGTTVTVSS
VL: DIVMTQSPLSLPVTPGEPASISCQASQELVHMNRNTYLHWYQQKPGQAPRLLIYKVSNRFPGVPDRFSGSGSGTDFTLKISRVEAEDVGVYYCAFGTSVPFTFGQGTKLEIK
B20: H183/L072 VL G91F (antibody, name in Kabat numbering, V domains shown)
VH: QVQLVESGGGLVQPGRSLRLSCAASGFTFSNAWMHWVRQAPGKGLEWVAQIKDKGNAYAAYYAPSVKGRFTISRDDSKNSIYLQMNSLKTEDTAVYYCHYVHYASASTVLPAFGVDAWGQGTTVTVSS
VL: DIVMTQSPLSLPVTPGEPASISCQASQELVHMNRNTYLHWYQQKPGQAPRLLIYKVSNRFPGVPDRFSGSGSGTDFTLKISRVEAEDVGVYYCAQFTSVPFTFGQGTKLEIK
B21: H183/L072 VL P95F (antibody, name in Kabat numbering, V domains shown)
VH: QVQLVESGGGLVQPGRSLRLSCAASGFTFSNAWMHWVRQAPGKGLEWVAQIKDKGNAYAAYYAPSVKGRFTISRDDSKNSIYLQMNSLKTEDTAVYYCHYVHYASASTVLPAFGVDAWGQGTTVTVSS
VL: DIVMTQSPLSLPVTPGEPASISCQASQELVHMNRNTYLHWYQQKPGQAPRLLIYKVSNRFPGVPDRFSGSGSGTDFTLKISRVEAEDVGVYYCAQGTSVFFTFGQGTKLEIK

These binders were tested against Human CD3eg linker (human) (assay: SPR; fold vs parent H183/L072).
Human CD3eg linker (human), sequence (chain, as listed by the source limits assumed): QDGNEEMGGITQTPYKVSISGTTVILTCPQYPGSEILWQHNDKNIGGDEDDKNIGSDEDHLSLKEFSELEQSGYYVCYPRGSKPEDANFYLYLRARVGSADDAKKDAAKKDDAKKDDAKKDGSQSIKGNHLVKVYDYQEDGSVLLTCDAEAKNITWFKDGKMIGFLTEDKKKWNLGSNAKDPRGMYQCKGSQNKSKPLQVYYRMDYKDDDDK

Fold change of affinity, 0 fold:
B1
B2
B3
B4
B5
B6
B7
B8
B9
B10
B11
B12
B13
B14
B15
B16
B17
B18
B19
B20
B21

— patent publication US20210388087A1
